Legend:
[1] = test system: IRE-BP1 C-terminal fragment (3.4-kb cDNA) (Rattus norvegicus); assay: cell_activity
NFkB p50 = NFkB p50 (UniProt P19838 P19838:1-433); assay: EMSA; supershifted by p50 antibody; conditions: tags: E. coli-expressed; chain copies: 2; label: 32P
Chain of NFkB p50 (P19838 1-433, one chain of several): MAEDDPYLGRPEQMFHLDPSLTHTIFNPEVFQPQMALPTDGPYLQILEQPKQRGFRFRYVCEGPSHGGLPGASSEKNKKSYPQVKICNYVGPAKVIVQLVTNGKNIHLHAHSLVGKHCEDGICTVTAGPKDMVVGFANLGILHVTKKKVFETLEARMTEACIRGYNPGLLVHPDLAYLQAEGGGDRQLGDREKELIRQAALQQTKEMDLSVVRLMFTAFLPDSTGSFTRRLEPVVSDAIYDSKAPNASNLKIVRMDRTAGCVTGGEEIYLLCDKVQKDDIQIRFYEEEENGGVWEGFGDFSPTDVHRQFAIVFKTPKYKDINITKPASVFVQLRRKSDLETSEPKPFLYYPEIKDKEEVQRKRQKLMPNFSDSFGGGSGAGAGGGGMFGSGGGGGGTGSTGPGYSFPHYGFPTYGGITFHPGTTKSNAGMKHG

“GTTTGTTTTGCTAGT (double strand) [IGFBP-1 IRE]” was tested, and the activity ([1]; with insulin, vs 24.7% vector alone, no basal effect, SEQ 50 inferred) was 63.2 % decrease.

“AATTCAAGGGTATCCAGGAAAGTCTCCTTCAAG (double strand) [IGFBP-3 IRE]” was tested, and the activity ([1]; COS-7 luciferase, 2-fold on control vector) was 14 fold.

With “GCCTCATTATTCCTGCCCACCAAT (double strand) [IGF-1 IRE]” the activity ([1]; COS-7 luciferase, basal, 3.5-fold with insulin) was 4.7 fold.

B1: IGFBP-3 IRE (dsDNA)
DNA 1: AATTCAAGGGTATCCAGGAAAGTCTCCTTCAAG
DNA 2: CTTGAAGGAGACTTTCCTGGATACCCTTGAATT
B1: binds (NFkB p50).

From patent publication US20060154864, “Transcript factor and an Akt substrate related to transcriptional action of insulin and applications of same” (Emory University, published 2006)
